In paper PMC10090083, “Structural basis of impaired disaggregase function in the oxidation-sensitive SKD3 mutant causing 3-methylglutaconic aciduria” (Nature Communications, 2023):

Target: the molecule itself
Experiment: not stated; oligomeric state of the isolated Ank domains in solution (Supplementary Fig. 1a, b); method not given

B1: Ank domain of human SKD3 isoform-1 (ANK_(iso1), residues 132-351) (domain or fragment, UniProt Q9H078 132-351, looked up)
chain: SNKDAALLEAARANNMQEVSRLLSEGADVNAKHRLGWTALMVAAINRNNSVVQVLLAAGADPNLGDDFSSVYKTAKEQGIHSLEDGGQDGASRHITNQWTSALEFRRWLGLPAGVLITREDDFNNRLNNRASFKGCTALHYAVLADDYRTVKELLDGGANPLQRNEMGHTPLDYAREGEVMKLLRTSEAKYQEKQRKREAEERRRFPLEQRLKEHIIGQE
notes: human SKD3 (CLPB) isoform-1, Ank domain construct, residues 132-351; TEV-cleavable tag; also called isolated Ank domain of SKD3; source: E. coli BL21-CodonPlus (DE3)-RIL, purified (IMAC, anion exchange, SEC); not shown: His6-SUMO, N-terminal, cleaved
B1 was tested, and the “stoichiometry N” value was 2.
